From the DeepSol protein solubility set come the findings set out here.

The nature of the series: soluble on expression in E. coli; label from the status in PepcDB or PDB records.
Take “MKMNVESFNLDHTKVKAPYVRIADRKKGVNGDLIVKYDVRFKQPNRDHMDMPSLHSLEHLVAEIIRNHANYVVDWSPMGCQTGFYLTVLNHDNYTEILEVLEKTMQDVLKAKEVPASNEKQCGWAANHTLEGAQNLARAFLDKRAEWSEVGVGSHHHHHH”: the “soluble on expression in E. coli” value is on record as “soluble”. For the sequence “AIASCGKPQETYSTSSILTREQFEIQHQEEDTIGEQVIFIDGVAYNSRGFRVCGAPNQRGGFCARFGQCPFHKDKVTTFKMSEETVSEFPRQLLTESCNLLQNNERKFKNAWKLDEHHRFLVALKKFGHGNWRQIADYVETRSASQCQSHAQKYYLRKRKLASNANLKRSIFDLIDEDTLSVEIGEEDTWNIIQKCPSKEAQGSVRSRSKTLQRMSTDSSVESYPIRELSTVDSELSTLQTYKQASFFIRIFRNGVFSHGVDLELPNSLASFFIKAAQLLDMSVATKAYTRSGFEISSLHEVCPGDILWISSGEEFIFPSPVQYIET”, the “soluble on expression in E. coli” value is recorded as “soluble”. As for “MGSDKIHHHHHHMSSPFDYFVVFAEMRTGSNFLEANLNALDGVACVGEAFNPHFIGYPNKTEILEVSQDMRDADPQCLIDAVRDARGVLAGFRFFHDHDPRVLDLVLSDPRCAKIILTRNPLDSYVSWKIAKETGQWKLTNIKRRKEAQARFDAEEFARHVEALQDFQVFLLNSLQRSGQTPFYVAYEDLQDLSVMNGLAQWLGVSARLEQLDDSLKRQNPSPVTSKVVNAGEMVEALSGLDRFNLTRTPNFEPRRGPAVPTYVTGAVTPLIYLPVRGGPEDEVRRWMADLDGVVDAALGTGLNQKQVRGWLKGNEGHRAFTVLRHPLARAHSAFCHRILNKGPGCFTKIRNTLRRQFSLPIPEGTPGLDYGRADHRAAFEAFLEFVRMNLAGQTAIRIDGSWCSQAQALSSFAEFVSPDLILREDEIATDLPSLARRFGHAEPPEPPRAAPDTPIPLSDIYDDALEALAADVYQRDYIVFGFGKWAGGQA”, the entry is “not soluble”; as for “MSLGIGHPMWVGWCIIIAMRSIPASVESSVLRWARESCGLTEVAAARKLGLPDDRVAAWEVGEVVPTIAQLRKAAEVYKRSLAVFFLSEPPEGFDTLRDFRRLDGAASGQWTPGLHEEFRRAHTQRDFALELADAEDREIPGAWRLPLSGDEADADIAARIRKALIEVSPLPIPVASVDPYEHLNAWVSAIETSGVLVLATRGGKVAIDEMRGMCLYFDELPVIVLNGSDHPRPRLFSLLHEFVHVVLHTEGLCDVIADAHPSTQDRSLEARCNAIAAAVLMPADVVRARPEVIVRSETPSSWDYESLRPVAAHFGVSAEAFLRRLSTLGIVPVEVYRQRRAEFIAAHEDEAEGHHHHHH”, “soluble”. As for “MPQPKKDKPDTPLRSDAQRNRERILAVATEELTHCANAPLSAIAKKAGVGQGTFYRNFPNREALVLEIYRYGMQQVAEAAPEMLATGEPDLALRQWMDRLAEFAMTKAGLADAIRLVTSAPGAPEKPRPTPLEDAAELLLRANHEAGTIRPGVTGDDFFLVLGGLWLIDPGENWQPRVTRFLDLVMDGLRAGAPGR”, the entry is “not soluble”.

Consider “MGSDKIHHHHHHMVGTDHVVHSLVACALCFKAVTLPLSSQTQILSGWGRTMPVQAKVVQPASVQQVQELVRQASPASLIARGLGRSYGDAAQLDGASAVEMGAFDQINLDLVKGSVTAGAGVSLNQLLRVIVPAGFFLPVTPGTRNVTIGGAIAADVHGKNHHVDGSFGNHLQRLLLVDGRGELRELTPSGKSSVDEIEQFWATVGGMGLTGIIVEATFSLIPISSSLISVNTARYHNLDELMAAMVASDSNYRYSVAWIDSLNAKGRGVLSCGDHAMAEQLPTSQQADPLVYDPKPLASAPTFLPVGLLNKLTVRAFNEAWFRKAPKQRLGELQTIGAYFHPLDGVQDWNRIYGPAGFLQYQFVVPDNASHLVLYTLEALRKIGTSSFLTVLKRFGPSNPGHLSFPMQGWTLAVDLPAAVPGLFEVLDHLDEHIAAENGRLYLAKDSRQSATILRRTYPRLEEWQQAREKLDPSKVFSSDMAIRTGL”, for which the “soluble on expression in E. coli” value is recorded as “not soluble”. The value for “MAHHHHHHMSAAAADYPLRRGGDVEDDVDDEERRRLTESSIKAFLEEEGVPVRSSVTVEDITSALVALANSVATASACLAVKVALLRLDCLTAVEGELRKDATRASSSKVRVTAEKSPSPRMTRASAFGWLRHLHQEGKGVCGVLRGGKAELGFVLASFVEEALLFAAMRSLMDRLGPLLPSENGRAGGAAALWWAGLSRTVAPTFVMSLLSWPLRAVRTTIRVNYMADTSLPVCEPSLQPAQQQGEQQQRRQHRYTSATEVWGCVLHRMGVRSLLLNGLDVDFASRALSLGLAWTVVKPASRWMQRWAMMSASTAGAASAPLALVRLGQHRLFALGVLLAVAGSVNALQRPFVVLRQRMALLPVADAESVCNGDDDQTKTPPTARRGCRYANGWDCAVQVWRQEGVSGLLAGLPLCLITSSVVPLLRTFAGYPTAPSFSGAVV” was “not soluble”; that for “MGSDKIHHHHHHMKKLLLTAAITLTMPFAAHAGSEFVEGDATLAGEAELGATLTTGNTDTSSFKARLALKQELGDWENEYVFEGLYKEDTEEVTAKRYFLGVQGDYQINDVSYLFANTNYEVDPFTGYDFTSTTSAGYGHRFIDTDRMSLKAEAGPGYIYQQLDEESALAEGYDSDDSVVAHAVIDFQTKISDSSKFQQKFVADWGSKLDARSETSLTANIVGALAMKFAVIVRYNSEPLDDKESTDTETNMTLLYAF” was “not soluble”. As for “MGSDKIHHHHHHMKNMTLDSLDMLSANILVNLYEKHSASSVAMEMNIPAPKVSRCLQHARMIFNDPLFIRKKHGLEPNEFTRQLYPLVKALVQCGEQLQQLESCHDLAASQVMVLYVSDLLIAELPQRLSSAISEAQLPISYELRTGSVDLVEDLAQGLVDLAIVSESSDRALQDDRLIVSPLTELTHLYLLCSHKHPLLQQEISLGNIANYPYLSAFGQLDKQAPDPFQRYCAQQRLSCHLAPVELGREGLAFHQLYRYLSDDKTVSLLPYSRVYEHSEQLPGLHVCCLSGMDTARLYRDQPYPRLYMLSRSGRGGAHLEWMKQEIGQLIKQNVH”, the entry is “not soluble”; as for “MREIINKLNPIIIDKADKKFGVSRILKKYDGKPVYIKDVNGFEVVGNLCSRETLSKIFNVKKEDFIFFMLDAMEKEKEGKLKINNKLKEKYIVEIPENIKNWPIPIYYEKDAGAYITSGVVVVYDKDYGYNLSIHRILVKDDYLVIRMVEQRHLHFLYNKALKEKGYLDVAIVIGVHPAVLLAGSTSADITFDELKFAAALLGGEIGVFELDNGLLVPEAEFIIEGKILPEVDDEGPFVDITGTYDIVRKQPIIKIEKLYRKEKPIFHALLPGGIEHKTLMGMPQEPRILKGVRNTVPTVKNIVLTEGGCCWLHAVVQIEKRTEGDGKNAILAAFASHPSLKHVIVVDDDINIFDINDVEYAIATRVQGDKDIVIISGAKGSSLDPSSDLKNKLTAKVGVDATMSLIKGREHFERAKIPDKLEHHHHHH”, “soluble”. In the case of “MDVVEVAGSWWAQEREDIIMKYEKGHRAGLPEDKGPKPFRSYNNNVDHLGIVHETELPPLTAREAKQIRREISRKSKWVDMLGDWEKYKSSRKLIDRAYKGMPMNIRGPMWSVLLNTEEMKMKNPGRYQIMKEKGKRSSEHIQRIDRDVSGTLRKHIFFRDRYGTKQRELLHILLAYEEYNPEVGYCRDLSHIAALFLLYLPEEDAFWALVQLLASERHSLQGFHSPNGGTVQGLQDQQEHVVATSQPKTMGHQSASRRRPGVARGHVFATGSLIPGPGMRTLCSSILGPL”, the “soluble on expression in E. coli” value was “not soluble”.

On to “MAHHHHHHMKPLAPFVCRLPSRRILRVRGTDAHDFLQGIFTNDLRELHPAGSMYGCFLYFTGRVLCDAHLYQCKQVHEGQASILVDVHERSATELLDHLTEMKMRKKVHIDDVGKELVVLAALEETSADAQRSRDSASGCDARESSVTSLSPETLEERHTECFLDPRNDALFPRPPPPSSSSPPAAVTSPSFCLRKCVVPATWAPPLSSPDSYTTLLYSRGIGEGPDVFKCNKSLPFEGNLDFLKGVSFHKGCYVGQELTHRTHVMLVTRKRTVPLHFGPANVDPPAAGIITDEGAVTKTWPVEVGEPLYSAAREKIGEVTGVCGQVGIGLFRLRYVDKATHTVPGLQLKDGTPVQTHLPDWWPRKDVKKLLQNNS”, for which the “soluble on expression in E. coli” value is given as “soluble”. The value for “MPELPEVETSRRGIEPHLVGATILHAVVRNGRLRWPVSEEIYRLSDQPVLSVQRRAKYLLLELPEGWIIIHLGMSGSLRILPEELPPEKHDHVDLVMSNGKVLRYTDPRRFGAWLWTKELEGHNVLTHLGPEPLSDDFNGEYLHQKCAKKKTAIKPWLMDNKLVVGVGNIYASESLFAAGIHPDRLASSLSLAECELLARVIKAVLLRSIEQGGTTLKDFLQSDGKPGYFAQELQVYGRKGEPCRVCGTPIVATKHAQRATFYCRQCQK” was “not soluble”; that for “MGSDKIHHHHHHMRPVEHAVIPCAGVGSRLNRGVPKSLTEIDGRTLLGRTLLALEHIPHVFLVVGFRKELVISEALRHRRNLIFVPNEYFDQTNTLYSVKLASRLIRDDFLMVDGDVVFDPSSFASLLGQLQTCDGPAIAYSRRTTEDGVKVRLDMSRGETTCTGFFRGEGAHEWTGIGRLNNRVISGNSLFVYESIERHMPAPAYLVDSMDIDTPADLEIARATYGRHDH” was “not soluble”; that for “MTEDLFGDLQDDTILAHLDNPAEDTSRFPALLAELNDLLRGELSRLGVDPAHSLEIVVAICKHLGGGQVYIPRGQALDSLIRDLRIWNDFNGRNVSELTTRYGVTFNTVYKAIRRMRRLKYRQYQPSLL” was “soluble”. Regarding “MSLEKSGFIVHQKFDSILQLEDFDSLDRALKESESYYQKLPSNWKTQVRKTSYHKNQMLNSLKILKKILREKNPESRKIQFQNSFLLLETKDEALGRITAYYEVIIEGRFYPEGDFIYPVLETPSDLIVKKDGNKKSVGKIINEVFVPYETREELSHTSVWKKRSKAIVYVKIVDLHLAQLEGSAFVKVPDHIPFRITYSEDNGKEYQSPAESLKGICSSLIPSDLKSCILKYPKEVEMAILKNPRYIFFKLESSAPRGSGGIELIPKRSVAMDPGIPLGIPVLISFESSVLTEKNRIVFVHDRGSQITGHGRLDYFLGTGETAEYQAGKINTQGKIFLILPKIKNEGHHHHHH”, the “soluble on expression in E. coli” value is reported as “soluble”.

For “MGSDKIHHHHHHMQEERSEKKIGPFKFQSNFEWKEFPQEEFEWFVKEVEKRFGLNLSSYKPQRVKRRTELLLRKYNVGYREYLNMLIKDKKYLDEFMDKMTINVTEFFRNPEKWWELRDEIIPLIAKNSLRMKFWSAGCSSGEEPYSLAILVHELNLSYKTRILATDIDIGVLRRAQEGIYEERAFVSTPKEYLEKYFEKLPDGRYRIKDSVKKIVEFKRHDLLKDPFEKNFDLIVCRNVVIYFEPEAKNELYRKFAESLKPGGFLFVGNTERIFNYKELGFEIYKPFIYRKVK”, the “soluble on expression in E. coli” value is reported as “not soluble”. As for “YDFIDNPGFDESHSLTEMREAFLSFFEDRDHERIDPYPVAANRWRDDVLLTQASIYDFQPLVTSGTTPPPANPLCISQPCIRMQDIDNVGKTGRHTMAFEMMAHHAFNAREDIEDPEQYAYEGEVYWKNETVQYCDELFEEMGANLDEIVYIEDPWVGGGNAGPAIEVIYRGAELATLVFMSMEQDSDGEYEMKDGNRYSPMDTYIVDTGYGLERWTWMSQGTPTVYEAVYPDMIAFLKDNAGIELTDEEERIVHEAAKLAGRMDI”, the entry is “not soluble”.
